One molecule from article PMC3502708 can be followed below.

As a reminder, the Kd is a measure of binding affinity in units of concentration. Lower therefore signals a tighter complex.

The target in experiment [1] is T1, MORF PHD1/2 fingers (aa 211-329) (human), Q8WYB5.
T1 chain: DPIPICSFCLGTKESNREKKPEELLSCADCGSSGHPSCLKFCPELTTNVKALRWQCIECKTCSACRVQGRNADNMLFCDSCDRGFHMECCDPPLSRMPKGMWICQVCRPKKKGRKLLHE
The experiment in a line: other fluorescence titration.

For experiment [2], the target named is MOZ PHD1/2 fingers (aa 207-318) (human), Q92794. The experiment in a line: other fluorescence titration.
MOZ PHD1/2 fingers (aa 207-318) (human), Q92794, sequence (Q92794 207-318): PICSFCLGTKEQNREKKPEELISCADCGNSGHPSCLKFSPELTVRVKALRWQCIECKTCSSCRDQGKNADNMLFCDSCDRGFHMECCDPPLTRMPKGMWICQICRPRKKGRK

Regarding ARTKQTARKSTG (modifications not checked) [unmodified histone H3 peptide (length not stated for the experiment)], the results for the equilibrium dissociation constant (Kd) in experiment [1] and in experiment [2] were 4.3 µM and 3.9 µM, respectively.
